Source: US20210169936A1 (AFFIMED, published 2021)
Where a chain is given by its changes, count along the chain named. Values belong to the molecule of their own block, whether it stands above or below them.

Columns and labels:
[1] = molecular target: human CD16A(48R, 158V) ECD fused to monomeric mFc.67 (human) (UniProt P08637); assay: ELISA, coated antigen-mFc
[2] = molecular target: human CD16B(NA1) ECD, mature form (without propeptide), fused to monomeric Fc (human) (UniProt O75015); assay: ELISA, coated antigen-mFc
Chain of human CD16B(NA1) ECD, mature form (without propeptide), fused to monomeric Fc (human) (O75015 other isoform, or with tags, fused parts or gaps): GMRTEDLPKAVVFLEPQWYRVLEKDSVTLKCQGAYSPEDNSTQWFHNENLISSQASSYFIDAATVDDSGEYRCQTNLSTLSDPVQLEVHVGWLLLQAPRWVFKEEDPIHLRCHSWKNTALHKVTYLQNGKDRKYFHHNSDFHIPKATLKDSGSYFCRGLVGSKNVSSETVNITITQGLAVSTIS

[3] = molecular target: Cynomolgus CD16A fused to IgG Fc (cynomolgus; human) (UniProt Q8SPW2); assay: ELISA, coated antigen-IgG Fc
Chain of Cynomolgus CD16A fused to IgG Fc (cynomolgus; human) (Q8SPW2 17-208): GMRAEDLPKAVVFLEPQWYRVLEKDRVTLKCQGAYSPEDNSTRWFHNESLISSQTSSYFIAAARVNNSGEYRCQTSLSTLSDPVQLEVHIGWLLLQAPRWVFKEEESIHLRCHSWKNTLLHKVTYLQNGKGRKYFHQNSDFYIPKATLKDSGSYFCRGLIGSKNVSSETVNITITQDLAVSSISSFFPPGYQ

[4] = molecular target: Human CD16A^(48R, 158F) fused to IgG Fc (human) (UniProt P08637); assay: ELISA, coated antigen-IgG Fc
Chain of Human CD16A^(48R, 158F) fused to IgG Fc (human) (P08637 17-208 L66R): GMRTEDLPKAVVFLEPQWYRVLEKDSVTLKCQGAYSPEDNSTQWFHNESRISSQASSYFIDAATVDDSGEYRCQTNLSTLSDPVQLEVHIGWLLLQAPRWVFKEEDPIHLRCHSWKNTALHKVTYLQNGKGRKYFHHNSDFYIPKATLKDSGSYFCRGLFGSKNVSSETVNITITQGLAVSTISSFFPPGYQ

[5] = molecular target: Human CD16A^(48R, 158V) fused to IgG Fc (human) (UniProt P08637); assay: ELISA, coated antigen-IgG Fc
Chain of Human CD16A^(48R, 158V) fused to IgG Fc (human) (P08637 17-208 L66R/F176V): as the sequence (P08637 17-208 L66R) above, with F160V counted along it

[6] = molecular target: T1, CD16A on primary human NK cells (human, UniProt P08637); assay: flow cytometry on primary human NK cells at 37 °C, without IgG; anti-His mAb and FITC goat anti-mouse IgG
T1 construct: full length, on the cell surface; also called FcgRIIIA on enriched human NK cells
T1 sequence (P08637 17-254 limits assumed): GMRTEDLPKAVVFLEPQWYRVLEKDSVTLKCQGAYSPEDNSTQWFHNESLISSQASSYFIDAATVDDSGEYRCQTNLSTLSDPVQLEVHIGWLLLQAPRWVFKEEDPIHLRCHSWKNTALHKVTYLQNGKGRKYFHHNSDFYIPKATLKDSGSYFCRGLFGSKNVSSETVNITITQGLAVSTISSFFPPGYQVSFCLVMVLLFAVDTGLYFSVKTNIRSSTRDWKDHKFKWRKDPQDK

[7] = molecular target: T1, CD16A on primary human NK cells; assay: flow cytometry on primary human NK cells at 37 °C, with 10 mg/mL polyclonal human IgG; anti-His mAb and FITC goat anti-mouse IgG
[8] = molecular target: Human CD16B^H140Y fused to IgG Fc (human) (UniProt O75015); assay: ELISA, coated antigen-IgG Fc
Chain of Human CD16B^H140Y fused to IgG Fc (human) (O75015 other isoform, or with tags, fused parts or gaps H140Y H140Y limits assumed): as the sequence (P08637 17-208 L66R) above, with S49N, R50L, I90V, G131D, F160V, F187S counted along it

[9] = molecular target: Human CD16B(NA1)^pr fused to IgG Fc (human) (UniProt O75015); assay: ELISA, coated antigen-IgG Fc
Chain of Human CD16B(NA1)^pr fused to IgG Fc (human) (O75015 other isoform, or with tags, fused parts or gaps limits assumed): as the sequence (P08637 17-208 L66R) above, with S49N, R50L, I90V, G131D, Y142H, F160V, F187S counted along it

[10] = molecular target: human CD16B ECD mutant H140Y fused to monomeric mFc.67 (human) (UniProt O75015); assay: ELISA, coated antigen-mFc
Chain of human CD16B ECD mutant H140Y fused to monomeric mFc.67 (human) (O75015 other isoform, or with tags, fused parts or gaps H140Y H140Y): as the sequence (P08637 17-208 L66R) above, with S49N, R50L, I90V, G131D, F160V, F187S counted along it

[11] = molecular target: human CD16A(48R, 158V) ECD fused to monomeric mFc.67 (human) (UniProt P08637); assay: ELISA, coated antigen-mFc, Protein L-HRP
[12] = molecular target: human CD16B ECD mutant H140Y fused to monomeric mFc.67 (human) (UniProt O75015); assay: ELISA, coated antigen-mFc, Protein L-HRP
[13] = molecular target: T2, mature ECD of CD16B(NA1) expressed on the CHO cell surface (human, UniProt O75015 17-200); assay: binding to recombinant CHO cells
T2 construct: mature; not shown: membrane anchor: transmembrane domain of human EGFR or GPI anchor

[14] = molecular target: T3, propeptide-containing ECD of CD16B(NA1) expressed on the CHO cell surface (human, UniProt O75015 17-208); assay: binding to recombinant CHO cells
T3 construct: extracellular domain; not shown: membrane anchor: transmembrane domain of human EGFR or GPI anchor
T3 sequence (O75015 other isoform, or with tags, fused parts or gaps): as the sequence (P08637 17-208 L66R) above, with S49N, R50L, I90V, G131D, Y142H, F160V, F187S counted along it

[15] = molecular target: T4, recombinant EGFR expressed on CHO cells (specificity control) (UniProt P00533 25-1210, limits assumed); assay: flow cytometry, MFI in cell binding to recombinant CHO cells; antigen EGFRTM anchored
T4 construct: whole, on cells; also called control EGFR antigen

[16] = molecular target: T1, CD16A on primary human NK cells; assay: flow cytometry on primary human NK cells at 37 °C, without IgG; anti-His mAb and FITC goat anti-mouse IgG; remark: listed apart in the source
Procedure: (§1) After the last staining step, the cells were washed again and resuspended in 0.2 mL of FACS buffer containing 2 μg/mL propidium iodide (PI) (Sigma, cat.: P4170) in order to exclude dead cells. […] For the calculation of KD, the equation for one-site-binding (hyperbola) was used.

[17] = molecular target: T1, CD16A on primary human NK cells; assay: as above; remark: listed apart in the source
Procedure: as §1

[18] = molecular target: T5, huCD16A (48R,158V), EGFRTM anchored (human, UniProt P08637;P00533); assay: flow cytometry, MFI in cell binding to recombinant CHO cells; antigen EGFRTM anchored
T5 construct: extracellular domain;transmembrane domain; Expressed on recombinant CHO cells; one member of the group m39
T5 sequence (P08637 other isoform, or with tags, fused parts or gaps limits assumed): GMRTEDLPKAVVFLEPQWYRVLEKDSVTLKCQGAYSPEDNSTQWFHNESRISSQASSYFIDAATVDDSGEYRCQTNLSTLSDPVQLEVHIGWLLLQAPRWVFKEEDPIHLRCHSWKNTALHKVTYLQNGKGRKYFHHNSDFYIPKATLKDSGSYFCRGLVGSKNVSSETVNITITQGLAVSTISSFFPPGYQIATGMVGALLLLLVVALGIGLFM

[19] = molecular target: T2, mature ECD of CD16B(NA1) expressed on …; assay: as above
[20] = molecular target: T3, propeptide-containing ECD of CD16B(NA1) …; assay: as above

Chain of human CD16A(48R, 158V) ECD fused to monomeric mFc.67 (human) (P08637 17-208 L66R/F176V): as the sequence (P08637 17-208 L66R) above, with F160V counted along it

Molecule: scFv antibody comprising the variable heavy and light chain sequences of antibody 3G8
- EC50 [1]: 1 nM
- EC50 [2]: 0.9 nM
- EC50 [3]: 7.5 nM
- EC50 [4]: 7.6 nM
- EC50 [5]: 1.2 nM
- EC50 (read off the curve) [6]: 3 nM
- EC50 (read off the curve) [7]: 20 nM

B1: scFv CD16A (CD16-7) (scFv)
scFv: QVQLVQSGAEVKKPGESLKVSCKASGYTFTNYYMHWVRQAPGQGLEWMGVIEPDGGRRTYAQKFQGRVTMTRDTSTSTVYMELSSLRSEDTAVYYCARGSAYYYDFADYWGQGTLVTVSSGGSGGSGGSGGSGGSGGSEIVLTQSPATLSLSPGERATLSCRGHQGVSGDVHWYQQKPGQAPRLLIYQANKRASGIPARFSGSGSGTEFTLTISSLEPEDFAVYYCQQWDNYSVTFGQGTKVEIKAAAGSHHHHHH
- EC50 [3]: 1.6 nM
- EC50 [4]: 2.4 nM
- EC50 [5]: 1.8 nM
- EC50 [8]: 1.7 nM

B2: scFv CD16A (CD16-5) (scFv)
scFv: QVQLVQSGAEVKKPGESLKVSCKASGYTFSSYYMHWVRQAPGQGLEWMGAIEPRGVRISYAQKFQGRVTMTRDTSTSTVYMELSSLRSEDTAVYYCARGSAYYYDFADYWGQGTLVTVSSGGSGGSGGSGGSGGSGGSSYVLTQPSSVSVAPGQTARITCGGHNIGSTNVHWYQQKPGQAPVLVIYQDSKRPSGIPERFSGSNSGNTATLTISGTQAMDEADYYCQVWDNYSVQFGGGTKLTVLAAAGSHHHHHH
- EC50 [3]: 1.4 nM
- EC50 [4]: 0.8 nM
- EC50 [5]: 1.2 nM
- EC50 [9]: 24.9 nM
- EC50 [8]: 1.1 nM

B5: BCMA-1/CD16-2 TandAb (CD16-2) (bispecific antibody)
chain: EVQLLESGGGLVQPGGSLRLSCAASGFTFSNYDMAWVRQAPGKGLEWVSSISTRGDITSYRDSVKGRFTISRDNSKNTLYLQMNSLRAEDTAVYYCARQDYYTDYMGFAYWGQGTLVTVSSGGSGGSGGSGGSSYVLTQPSSVSVAPGQTATISCGGHNIGSKNVHWYQQRPGQSPVLVIYQDNKRPSGIPERFSGSNSGNTATLTISGTQAMDEADYYCQVWDNYSVLFGGGTKLTVLGGSQVQLVQSGAEVKKPGESLKVSCKASGYTFTSYYMHWVRQAPGQGLEWMGAIEPMYGSTSYAQKFQGRVTMTRDTSTSTVYMELSSLRSEDTAVYYCARGSAYYYDFADYWGQGTLVTVSSGGSGGSGGSGGSAIQMTQSPSSLSASVGDRVTITCRASEDIYNGLAWYQQKPGKAPKLLIYGASSLQDGVPSRFSGSGSGTEFTLTISSLQPEDEATYYCAGPHKYPLTFGGGTKVEIK
- EC50 [11]: 1.1 nM
- EC50 [12]: 1.2 nM

B6: scFv CD16A (CD16-1) (scFv)
scFv: QVQLVQSGAEVKKPGESLKVSCKASGYTFTSYYMHWVRQAPGQGLEWMGIINPSGGSTSYAQKFQGRVTMTRDTSTSTVYMELSSLRSEDTAVYYCARGSAYYYDFADYWGQGTLVTVSSGGSGGSGGSGGSGGSGGSSYVLTQPSSVSVAPGQTATISCGGHNIGSKNVHWYQQRPGQSPVLVIYQDNKRPSGIPERFSGSNSGNTATLTISGTQAMDEADYYCQVWDNYSVLFGGGTKLTVLAAAGSHHHHHH
notes: also called LSIV21 scFv
- EC50 [3]: 16.2 nM
- EC50 [4]: 25.7 nM
- EC50 [5]: 14.4 nM
- EC50 [8]: 9.5 nM
- binding result [13]: no binding
- binding result [14]: no binding
- binding result [15]: no binding
- EC50 (read off the curve) [16]: ~40 nM

B7: scFv CD16A (CD16-2) (scFv)
scFv: B6 scFv with I50A, N52E, S54M, G55Y
notes: also called CD16-2 scFv
- EC50 [1]: 1.6 nM
- EC50 [10]: 1.3 nM
- EC50 [3]: 2.5 nM
- EC50 [4]: 2.8 nM
- EC50 [5]: 1.5 nM
- EC50 [8]: 1.2 nM
- binding result [13]: no binding
- binding result [14]: no binding
- binding result [15]: no binding
- EC50 (read off the curve) [17]: ~10 nM
- EC50 (read off the curve) [7]: ~30 nM

Next, values leading:

- EC50 [1]: 0.6 nM
- EC50 [10]: 0.5 nM
B3: EGFR-1/CD16-1 TandAb (CD16-1) (bispecific antibody)
chain: QVQLQESGPGLVKPSETLSLTCTVSGGSVSSGSYYWSWIRQPPGKGLEWIGYIYYSGSTNYNPSLKSRVTISVDTSKNQFSLKLSSVTAADTAVYYCARNPISIPAFDIWGQGTMVTVSSGGSGGSGGSSYVLTQPSSVSVAPGQTATISCGGHNIGSKNVHWYQQRPGQSPVLVIYQDNKRPSGIPERFSGSNSGNTATLTISGTQAMDEADYYCQVWDNYSVLFGGGTKLTVLGGSGGSQVQLVQSGAEVKKPGESLKVSCKASGYTFTSYYMHWVRQAPGQGLEWMGIINPSGGSTSYAQKFQGRVTMTRDTSTSTVYMELSSLRSEDTAVYYCARGSAYYYDFADYWGQGTLVTVSSGGSGGSGGSQPVLTQPPSVSVAPGKTARITCGGNNIGSKSVHWYQQKPGQAPVLVIYYDSDRPSGIPERFSGSNSGNTATLTISRVEAGDEADYYCQVWDTSSDHVLFGGGTKLTVLAAAGSHHHHHH

- EC50 [3]: 1.4 nM
- EC50 [4]: 1.2 nM
- EC50 [5]: 1.2 nM
- EC50 [8]: 1.3 nM
B4: scFv CD16A (CD16-3) (scFv)
scFv: QVQLVQSGAEVKKPGESLKVSCKASGYTFTNYYMQWVRQAPGQGLEWMGVINPGGGSTSYAQKFQGRVTMTRDTSTSTVYMELSSLRSEDTAVYYCARGSAYYYDFADYWGQGTLVTVSSGGSGGSGGSGGSGGSGGSSYVLTQPSSVSVAPGQTARITCGGHNIGSQSVHWYQQKPGQAPVLVIYQDSKRPSGIPERFSGSNSGNTATLTISGTQAMDEADYYCQVWDNYSVVFGGGTKLTVLAAAGSHHHHHH

- EC50 [3]: 1.4 nM
- EC50 [4]: 2.5 nM
- EC50 [5]: 2.2 nM
- EC50 [8]: 1.7 nM
B8: scFv CD16A (CD16-4) (scFv)
scFv: QVQLVQSGAEVKKPGESLKVSCKASGYSFSDFYIQWVRQAPGQGLEWMGIINPGGASTTYAQKFQGRVTMTRDTSTSTVYMELSSLRSEDTAVYYCARGSAYYYDFADYWGQGTLVTVSSGGSGGSGGSGGSGGSGGSSYVLTQPSSVSVAPGQTARITCGGYNIGRQSVHWYQQKPGQAPVLVIYQDSKRPSGIPERFSGSNSGNTATLTISGTQAMDEADYYCQVWDNYTVVFGGGTKLTVLAAAGSHHHHHH

- binding result [18]: no binding
- binding result [19]: no binding
- binding result [20]: no binding
B9: EGFR-1 scFv (scFv)
scFv: QVQLQESGPGLVKPSETLSLTCTVSGGSVSSGSYYWSWIRQPPGKGLEWIGYIYYSGSTNYNPSLKSRVTISVDTSKNQFSLKLSSVTAADTAVYYCARNPISIPAFDIWGQGTMVTVSSGGSGGSGGSGGSGGSGGSQPVLTQPPSVSVAPGKTARITCGGNNIGSKSVHWYQQKPGQAPVLVIYYDSDRPSGIPERFSGSNSGNTATLTISRVEAGDEADYYCQVWDTSSDHVLFGGGTKLTVLAAAGSHHHHHH
notes: also called scFv EGFR (EGFR-1); control scFv
